Source: the nanobody polyreactivity screen of Harvey et al. (2022)

Assay: yeast display, Sf9 membrane polyspecificity reagent, FACS + sequencing; frameworks hold sequencing errors
How it was run: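 Galactose-induced (36–48 hours) yeast carrying a synthetic nanobody display library were exposed to 10% biotinylated, detergent-solubilized Sf9 membrane reagent at 4 °C for 1 hour. FACS followed streptavidin microbead enrichment, using low and high (top ~1%) gates for expression (anti-HA) and reagent binding (streptavidin). Colony PCR, MiSeq 2 × 250 sequencing and CDR-length filtering followed. Labels for polyreactivity reflect the gate of origin.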

| Sequence | polyreactivity (PSR sort gate) |
| --- | --- |
| QVQLVESGGGLVQAGGSLRLSCAASGTFSNYAMGWYRQAPGKERELVAGISKRGGSTYYADSVKGRFTISRDNAKNTVYLQMNSLKPEDTAVYYCRVYAYDYWGQGTQVTVSS | low polyreactivity |
| QVQLVESGGGLVQAGGSLRLSCAASGTFSSYAMGWYRQAPGKERELVAAITNGGNTNYADSVKGRFTISRDNAKNTVYLQMNSLKPEDTAVYYCNARYGNESQGWEDYWGQGTQVTVSS | low polyreactivity |
| QVQLVESGGGLVQAGGSLRLSCAASGTFTRNVMGWYRQAPGKERELVAAIDNGSSTNYADSVKGRFTISRDNAKNTVYLQINSQKPEDTAVYYCANERPRSAGSAASIEQQMDYWGQGTQVTVSS | low polyreactivity |
| QVQLVESGGGLVQAGGSLRLSCAASGTFTVNTMGWYRQAPGKERELVAAISTGDTTTYADSVKGRFTISRDNAKNTVYLQMNSLKPEDTAVYYCNVDIGVYAYESDYWGQGTQVTVSS | low polyreactivity |
| QVQLVESGGGLVQAGGSLRLSCAASGTFYGYAMGGYRQSPGKERELVAAITWSGGSTYYADSVKGRFTISRDNAKNTVYLQMNSLKPEDTAVYYCAASLYSGYDSWGQGTQVTVSS | low polyreactivity |
| QVQLVESGGGLVQAGGSLRLSCAASGTFYYYAMGWYRQAPGKERELVAAISNGDSTTYADSVKGRFTISRDNAKNTVYLQMTSLKPEDTAVYYCAAYRYTPRTSRGYYYWGQGTQVTVSS | low polyreactivity |
| QVQLVESGGGLVQAGGSLRLSCAASGTIFDYNAMGWYRQAPGKERELVAAISWRGGTTYYADSVKGRFTISRDNAKNTVYLQMNSLKPEDTAVYYCAAGRRGVYHGGYWGQGTQVTVSS | high polyreactivity |
| QVQLVESGGGLVQAGGSLRLSCAASGTIFFGNTMGWYRQAPGKERELVAVITSSGGRTFYADSVKGRFTISRDNAKNTVYLHMNSLKPEDTAVYYCAAGHGFYYFTPTHDSWGQGTQVTVSS | high polyreactivity |
| QVQLVESGGGLVQAGGSLRLSCAASGTIFGGYGRGWYRQAPGKERELVAAITSGSSTYYADSVKGRFTISRDNAKNTVYLQMNSLKPEDTAVYYCAARPFPHSAYEGDYWGRGTQVTVSS | low polyreactivity |
| QVQLVESGGGLVQAGGSLRLSCAASGTIFGKYAMGWYRQAPGKERELDAAISRAGGRTYYADSVKGRFTISRDNAKNTVYLQMNSLIPEDTAVYYCNAGNLHSGGQRWNLYYWGQCTQVTVSS | high polyreactivity |
| QVQLVESGGGLVQAGGSLRLSCAASGTIFSVNAMGWYRQRLGKKGSWWPLFLTLLPSTYYADSVKARFTISRDNAKNTVYLQMNSLKPEDTAVYYCNAVYSVDFPTPTSDGDPDGFDYWGQGTQVTVSS | low polyreactivity |
| QVQLVESGGGLVQAGGSLRLSCAASGTIFTHNAMGWYRQAAGKEREFVAAISSGGSTNYADSVNGRFTISRDNAKNTVYLQMNSLKPQDTAVYYCAKSIDGWYWRRRRYDYWGHGTQVTVSS | low polyreactivity |
| QVQLVESGGGLVQAGGSLRLSCAASGTIFYIYAMGWYRQAPGKERELVAAITWRGGRTYYADSVKGRFTISRDNAKNTVYLQMNSLKPEDTAVYYCAALYANYYYRYEYWGQGTQVTVSS | high polyreactivity |
| QVQLVESGGGLVQAGGSLRLSCAASGTLRYYAMGWYRQAPGKERELVAAISKSGGRTYYADSVKGRFTISRDNAKNTVYLQMNSLKPEDTAVYYCAARGWTANYEMDHWGQGTQVTVSS | high polyreactivity |
| QVQLVESGGGLVQAGGSLRLSCAASGTLYINVMGWYRQAPGKERELVAAISSNGARTYYADSVKGRFTISRDNAKNTVYLQMNSLKPEDTAVYYCNRVASVRARDYDYWGQGTQVTVSS | high polyreactivity |
| QVQLVESGGGLVQAGGSLRLSCAASGTMGWYRQAPGKERELVAAISSSDRTSYADSVKGRFTISRDNAKNTVYLQMNSLKPEDTAVYYCNASTVFAWRTTTLKLFYTAHDYWGQGTQVTVSS | low polyreactivity |
| QVQLVESGGGLVQAGGSLRLSCAASGTTFAWNTMGWYRQAPGKERELVARISRRSVSTYYADSVKGRFTISRDNAKNTVYLQMNSLKPEDTAVYYCAADYFSYQKYDYWGQGTQVTVSS | low polyreactivity |
| QVQLVESGGGLVQAGGSLRLSCAASGTTFVIYAKGWYRQAPGKERELVASISGSGGSTFYADSVKGRFTISRDNAKITVYLQMNSLKPEDTAVYYCAAAVGVGRSGGTYDYWGQGTQVTVSS | low polyreactivity |
| QVQLVESGGGLVQAGGSLRLSCAASGTTISNYAMGWYRQAPGKERELVAGIDWSGGSTYYADSVKGRFTISRDNAKNTVYLHMNSLKPEDTAVYYCAKRVWYHGRKLRGYYWGQGTQVTVSS | low polyreactivity |
| QVQLVESGGGLVQAGGSLRLSCAASGTTLYWNAMGWYRQAPGKERELVAAISRSGGSTYYADSVKGRFTISRDNAKNTVYLQMNSLKPEDTAVYYCAARRYVPHTEYYYWGQGTQVTVSS | low polyreactivity |
| QVQLVESGGGLVQAGGSLRLSCAASGTTSPNAMGWYRQAPGKERELVAAMWSGGTYYADSVKGRFTISRDNAKNTVYLQMNSLKPEDTAVYYCAADGEFRRAWYEGDYWGQGTQVTVSS | low polyreactivity |
| QVQLVESGGGLVQAGGSLRLSCAASGVIFSFYAMGWDREAPGKERELVAAISSSGSTNYADSVKGRFTISRDNAKNTVYLQMNSLKPEDTAVYYCNTYFRYFSFYGRPFDYWGQGTQVTVSS | high polyreactivity |

| Sequence | polyreactivity (PSR sort gate) |
| --- | --- |
| QVQLVESGGGLVQAGGSLRLSCAASGVTFRLDAMGCYRQAPGKDRELVAAISRSGTSTYYADSVKGRFTISRDNPKNTVYLHMNTRKPDDTAVYYCNTARYRYAWYTRYVSWGQGTQVTVSS | high polyreactivity |
| QVQLVESGGGLVQAGGSLRLSCAASGYAMGWYRQAPGKERELVAAISWSGDITYADSVKGRFTISRDNAKNTVYLQMNSLKPEDTAVYYCNADRYTGRDGEQSLDYWGQGTQVTVSS | low polyreactivity |
| QVQLVESGGGLVQAGGSLRLSCAASGYDMGWYRQAPGKERELVAAISRGGSTSYADSVKGRFTISRENAKNTVYLQMNSLKPEDTAVYYCAARYGSYRVGYDYWGQGTQVTVSS | low polyreactivity |
| QVQLVESGGGLVQAGGSLRLSCAASGYIFAENAMGWYRQAPGKERELVATITYIGGSTHYADSVKGRFTISRDNAKNTVYLQMNSLKPEDTAVYYCNADNSTYYRSDFGYWGQGTQVTVSS | low polyreactivity |
| QVQLVESGGGLVQAGGSLRLSCAASGYIFAVYAMGWYIQAPGKEREFVAVITWRGGSTYYADSVKGRFTISRDNAKNTVYLHMNSLKPEDTAVYYCAADVYAQYDYWGQGTQVTVSS | high polyreactivity |
| QVQLVESGGGLVQAGGSLRLSCAASGYIFDFYDMGWYRQAPGKERELVAAITSGGSTNYADSVKGRFTISRDNAKNTVYLQMNSLKPEDTAVYYCAASFVGHIYWGARVPYYYNHDYWGQGTQVTVSS | high polyreactivity |
| QVQLVESGGGLVQAGGSLRLSCAASGYIFDHYAMGWYRQAPGKEREFVAAISRSAGSTYYADSVKGRFTISRDNAQNTVYLQMNSLKPEDTAVYYCNAVVAVRSWRKYEYWGQGTQVTVSS | high polyreactivity |
| QVQLVESGGGLVQAGGSLRLSCAASGYIFDIYAMGWYRQAPGKEMQLVAVITRSGGGTYYADSVKGRFTISRDNAKNTVYLQMNSLKPEDTAVYYCAAESFVYGGSDYDYWGQGTQVTVSS | low polyreactivity |
| QVQLVESGGGLVQAGGSLRLSCAASGYIFDRNAMGWYRQAPGKERELVAAITKRGGITYYADSVKGRFTISRDNAKNTVYLQMNSLKPEDTAVFYWNALARSSRYDYWGQGTQVTVSS | high polyreactivity |
| QVQLVESGGGLVQAGGSLRLSCAASGYIFDRNSMGWYRQAPGKERELVAAITKRGGITYYADSVKGRFTISRDNAKNTVYLQMNSLKPEDTAVYYCNALARSSRYDYWGQGTQVTVSS | high polyreactivity |
| QVQLVESGGGLVQAGGSLRLSCAASGYIFDRYAMGWYRKAPGKEREMVAPISGRGGSTYYADSVKGRFSISRDNAKNTVFLQMNSLKPEDTAVYYCARDVYVRNGQRARYVSWGQGTQVTVSS | high polyreactivity |
| QVQLVESGGGLVQAGGSLRLSCAASGYIFDYNAMGWYRQAPGKERELVAAITFRDGSTYADSVKGRFTISRDNAKNTVYLQMNSLKPEDTAVYYCNRRSQVHSHSKHDYWGQGTLVTVSS | low polyreactivity |
| QVQLVESGGGLVQAGGSLRLSCAASGYIFERNAMGWYRQAPGKERELVAAITDDGDDTYYADSVKGRFTISRDNAKNTVFLLMNSLKPEDTAVYYCAKDLYYGDYYYWGQGTQVTVSS | low polyreactivity |
| QVQLVESGGGLVQAGGSLRLSCAASGYIFERYAMGWYRPAPGKERELVAAISSGGGRTYYADSVKGRFTISRDNAKNPVYLQMNSLQPEDTAVYYCAADHWWISSYWGQGTQVTVSS | high polyreactivity |
| QVQLVESGGGLVQAGGSLRLSCAASGYIFEVNTMGWYIQAPGKERELVAAITSGGTTYYADSVKGRFTISRDNAKNTVYLQMNSLKPDDTAVYYCAALWSRRRSRPRFDYWGQGTQVTVSS | high polyreactivity |
| QVQLVESGGGLVQAGGSLRLSCAASGYIFEYYAMGWYRQAPGKERELVAAISWSGGSTYYADSVKGRFTISRDNAKNTVYFQLNSLKPVDTAVYYCAAEYVTYQQGLWGYDYWGQGTQVTVSS | low polyreactivity |
| QVQLVESGGGLVQAGGSLRLSCAASGYIFGFYAMGWYRQAPGKERELVSRITYSGTSTYYADSVKGRFTISRDNAKNTVYLQMNSLKPEDTAVYYCATDFVRHAGWRRYDYWGQGTQVTVSS | low polyreactivity |
| QVQLVESGGGLVQAGGSLRLSCAASGYIFGGNAMGSYRPAPGNPRELVAAISSSSGGTYYADSVKGRFTISRDNAKNTVYLQMNSLKPEDTAVYYCAAAPVDYEYDYWGQGTQVTVSS | low polyreactivity |
| QVQLVESGGGLVQAGGSLRLSCAASGYIFGRNARGWYRQAQGKERELVAVISSRGSRTYYADSVKGRYTISRDNAKNTVYLQMNSLKPEDTAVYYCNAVMWWDWEYDFYYWGQGNQVTVSS | high polyreactivity |
| QVQLVESGGGLVQAGGSLRLSCAASGYIFGVYAMGWYRQAPGKERELVARITSGGSTNYADSVKGRFTISRDNAKNTVYLQMNSLKPEDTAVYYCAAAVGNTDREYDYWGQGTQVTVSS | low polyreactivity |
| QVQLVESGGGLVQAGGSLRLSCAASGYIFGWYTMGWYRQAPGKEREFVASISNSDASTYYADSVKGRFTISRDNAKNTVYLQMNSLKPEDTAVYYCAADTTYWHWIYYYWGQGTQVTVSS | low polyreactivity |
